Residue numbers refer to the chain shown, from its start. Names may count otherwise.

The Kd is the concentration at which binding is half-saturated. Low values mean higher affinity, high ones lower affinity.

The labels stand for the following.
T1: canine CD20 ECD2 peptide (canine)
T1 peptide: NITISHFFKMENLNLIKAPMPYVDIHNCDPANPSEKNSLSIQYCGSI

T2: canine CD20 on canine B cells / B cell lymphoma cells (canine, UniProt Q3C2E2 1-297)
T2 construct: whole, on cells; Endogenous CD20 on canine cells
T2 sequence (looked up): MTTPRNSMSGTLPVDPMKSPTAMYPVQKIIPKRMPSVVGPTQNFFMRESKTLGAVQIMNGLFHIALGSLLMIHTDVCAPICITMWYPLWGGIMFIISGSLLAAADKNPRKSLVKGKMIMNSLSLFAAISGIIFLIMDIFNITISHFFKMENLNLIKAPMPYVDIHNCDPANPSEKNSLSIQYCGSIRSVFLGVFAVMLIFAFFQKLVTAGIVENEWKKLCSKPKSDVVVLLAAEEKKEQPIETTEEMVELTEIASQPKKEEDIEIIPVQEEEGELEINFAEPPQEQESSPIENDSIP

T3: Hum-Can CD20 ECD2 V3 (mFc fusion) (human/canine hybrid)
T3 construct: Described as a hybrid version of the original immunogen CD20 ECD2-mFc
T3 chain: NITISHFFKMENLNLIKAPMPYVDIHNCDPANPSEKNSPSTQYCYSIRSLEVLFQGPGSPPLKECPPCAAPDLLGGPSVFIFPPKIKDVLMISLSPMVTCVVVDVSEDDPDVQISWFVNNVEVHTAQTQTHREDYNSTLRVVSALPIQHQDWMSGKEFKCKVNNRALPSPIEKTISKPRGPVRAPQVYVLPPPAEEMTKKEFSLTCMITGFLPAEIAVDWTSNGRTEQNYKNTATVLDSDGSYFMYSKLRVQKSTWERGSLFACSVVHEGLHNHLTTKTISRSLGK

T4: canine CD20 ECD2-mFc fusion protein (canine)
T4 construct: also called cCD20 ECD2-mFc
T4 chain: T3 chain with P39L, T41I, Y45G

B1: 1E4-cIgGB with G34 to Q substitution in VL (antibody, V domains shown)
VH: EVQLVESGGGLVKPGGSLKLSCAASGFTFSDYGMLWVRQAPEKGLEWIAYISSGSSTIYYADRVKGRFTISRDNAKNTLFLQMTSLRSEDTAMYYCSTGTFAYWGQGTPVTVSS
VL: DVVMTQNPLSLPVSLGDQASISCRSSQSLIYNNQNTYLHWYRQKPGQSPKLLIYKVSNRFSGVPDRFSGSGSGTDFTLKISRVEAEDLGVYFCSQSTHVPFTFGSGTKLEIKR
notes: also called G34Q
B2: 1E4-cIgGB with G34 to K substitution in VL (antibody, V domains shown)
VH: B1 VH
VL: B1 VL with Q34K
notes: also called G34K
B3: 1E4-cIgGB with N33 to K substitution in VL (antibody, V domains shown)
VH: B1 VH
VL: B1 VL with N33K, Q34G
notes: also called N33K
B4: 1E4-cIgGB with G34 to A substitution in VL (antibody, V domains shown)
VH: B1 VH
VL: B1 VL with Q34A
notes: also called G34A
B5: mouse monoclonal antibody 1E4 (antibody, V domains shown)
VH: B1 VH
VL: DVVMTQNPLSLPVSLGDQASISCRSSQSLIYNNGNTYLHWYRQKPGQSPKLLIYKVSNRFSGVPDRFSGSGSGTDFTLKISRVEAEDLGVYFCSQSTHVPFTFGSGTKLEIK
notes: Mouse monoclonal antibody from a hybridoma; also called 1E4-mAb; hybridoma antibody 1E4
B6: mouse monoclonal antibody 1G10 (antibody, V domains shown)
VH: EVQLQQSGPELVKPGASVKISCKASGYTFTDYYMNWVKQSHGKSLEWIGDINPNNGDTSYNQKFKGKAPLTVDKSSSTAYMEVRSLTSEDSAVYFCARGGVLRYPYYYVMDYWGQGTSVTVSS
VL: DIVMTQAAPSVPVTPGESVSISCRSNKSLLHRNGNTYLYWFLQRPGQSPQLLIYRMSNLASGVPDRFSGSGSGTAFTLRISRVEAEDVGVYYCMQHLEFPFTFGGGTKLEIK
notes: Mouse monoclonal antibody from a hybridoma; also called hybridoma antibody 1G10
B7: chimeric anti-canine CD20 antibody 1E4-cIgGB (antibody, V domains shown)
VH: B1 VH
VL: B1 VL with Q34G
notes: also called unmodified (WT) 1E4-cIgGB; 1E4-cIGB
B8: 1E4-cIgGB with G34 to F substitution in VL (antibody, V domains shown)
VH: B1 VH
VL: B1 VL with Q34F
notes: Whole antibody (heavy plus light chains) made 'using the above procedures'
B9: 1E4-cIgGB with G34 to E substitution in VL (antibody, V domains shown)
VH: B1 VH
VL: B1 VL with Q34E
notes: as for B8
B10: 1E4-cIgGB with N33 to E substitution in VL (antibody, V domains shown)
VH: B1 VH
VL: B1 VL with N33E, Q34G
notes: as for B8
B11: 1E4-cIgGB with N33 to L substitution in VL (antibody, V domains shown)
VH: B1 VH
VL: B1 VL with N33L, Q34G
notes: as for B8
B12: 1E4-cIgGB with G34 to R substitution in VL (antibody, V domains shown)
VH: B1 VH
VL: B1 VL with Q34R
notes: as for B8
B13: 1E4-cIgGB with N33 to A substitution in VL (antibody, V domains shown)
VH: B1 VH
VL: B1 VL with N33A, Q34G
notes: as for B8
B14: 1E4-cIgGB with G34 to L substitution in VL (antibody, V domains shown)
VH: B1 VH
VL: B1 VL with Q34L
notes: as for B8
B15: 1E4-cIgGB with N33 to F substitution in VL (antibody, V domains shown)
VH: B1 VH
VL: B1 VL with N33F, Q34G
notes: as for B8
B16: 1E4-cIgGB with G34 to H substitution in VL (antibody, V domains shown)
VH: B1 VH
VL: B1 VL with Q34H
notes: as for B8
B17: 1E4-cIgGB with G34 to P substitution in VL (antibody, V domains shown)
VH: B1 VH
VL: B1 VL with Q34P
notes: as for B8
B18: 1E4-cIgGB with G34 to V substitution in VL (antibody, V domains shown)
VH: B1 VH
VL: B1 VL with Q34V
notes: as for B8
B19: 1E4-cIgGB with G34 to I substitution in VL (antibody, V domains shown)
VH: B1 VH
VL: B1 VL with Q34I
notes: as for B8
B20: 1E4-cIgGB with N33 to Y substitution in VL (antibody, V domains shown)
VH: B1 VH
VL: B1 VL with N33Y, Q34G
notes: as for B8
B21: 1E4-cIgGB with N33 to V substitution in VL (antibody, V domains shown)
VH: B1 VH
VL: B1 VL with N33V, Q34G
notes: as for B8
B22: 1E4-cIgGB with N33 to I substitution in VL (antibody, V domains shown)
VH: B1 VH
VL: B1 VL with N33I, Q34G
notes: as for B8
B23: 1E4-cIgGB with N33 to R substitution in VL (antibody, V domains shown)
VH: B1 VH
VL: B1 VL with N33R, Q34G
notes: as for B8
B24: 1E4-cIgGB with N33 to H substitution in VL (antibody, V domains shown)
VH: B1 VH
VL: B1 VL with N33H, Q34G
notes: as for B8
B25: 1E4-cIgGB with G34 to Y substitution in VL (antibody, V domains shown)
VH: B1 VH
VL: B1 VL with Q34Y
notes: as for B8
B26: 1E4-cIgGB with N33 to T substitution in VL (antibody, V domains shown)
VH: B1 VH
VL: B1 VL with N33T, Q34G
notes: as for B8
B27: 1E4-cIgGB with N33 to P substitution in VL (antibody, V domains shown)
VH: B1 VH
VL: B1 VL with N33P, Q34G
notes: as for B8
B28: 1E4-cIgGB with N33 to Q substitution in VL (antibody, V domains shown)
VH: B1 VH
VL: B1 VL with N33Q, Q34G
notes: as for B8

The first assay has as its target T1, canine CD20 ECD2 peptide. Kind of assay: ELISA on canine CD20 ECD2 peptide (FIG. 5). (In general: In an ELISA, binding on a coated surface is turned into a signal by an enzyme label.)
With B1, the binding result is listed as “binds”.
Same read-out and setting: to B2 belongs “binds”.
Take B3: the binding result is on record as “binds”.
On the same count and under the same terms, to B4 belongs “binds”.

The next assay has as its target T2, canine CD20 on canine B cells / B cell …. Kind of assay: FACS on canine B cell lymphoma cells expressing canine CD20. Here is the method:
The relative affinities of the mouse monoclonal antibodies 1E4, 1G1, and 1G10 for binding to canine CD20 was determined by fluorescent activated cell sorting (FACS) using canine B cell lymphoma cells, which express canine CD20.
Turning to B5, binding was put at a Kd of 970 pM.
In turn, B6 returned a Kd of 290 pM.

A further assay concerns the target T3, Hum-Can CD20 ECD2 V3 (mFc fusion). In words: ELISA, antigen coated at 200 ng/well, antibody 5 ug/ml. Here is the method:
(§1) This strategy- enabled identification of the specific sequences in canine CD20 that each mAb binds. Binding was tested using a standard ELISA protocol. Briefly, recombinant canine CD20 ECD2-mFc fusion protein and human/canine hybrid variants thereof were diluted in PBS and bound to a 96-well microtiter plate at 200 ng/well by overnight incubation at 4° C. The plate was rinsed three times with PBST buffer, blocked with a solution of 3% BSA in PBS for one hour at 37° C., then rinsed once with PBST. Mouse monoclonal antibodies 1E4, 1G1, and 1G10 were diluted to a concentration of 5 μg/ml in PBS and 50 μl of this dilution was applied to the plate for 1 hour at room temperature. The plate was then rinsed three times with PBST, and Jackson Immunoresearch goat anti-mouse-IgG light chain-specific HRP conjugate (#115-035-174) diluted to 1:5000 in PBS (50 μL) was added to each well, and the plate was incubated for 45 min at room temperature. The plate was washed three times with PBST, then 100 μl of SureBlueTMB substrate (KPL #52-00-03) was added to each well and the plate was incubated for about 10 min at room temperature. The plate was read at 650 nm in a spectrophotometer.
For the molecule B5, the binding result is recorded as “binds”.
Still for that read-out and setting: the entry for B6 is “binds”.

The target in a further assay is T4, canine CD20 ECD2-mFc fusion protein. Described as above. As to the method: as §1
Regarding B5, the binding result is recorded as “binds”.
In the case of B6, the binding result is reported as “binds”.

The target in the next assay is T1, canine CD20 ECD2 peptide. In words: ELISA on canine CD20 ECD2 peptide.
B7: the binding result was “binds”.
Same read-out and setting: to B8 belongs “binds”.
In the case of B9, the binding result is recorded as “binds”.
The same measure, in the same setting: to B10 belongs “binds”; to B11, “binds”.
The same measure, in the same setting: to B12 belongs “binds”; to B13, “binds”.
For B14, the binding result is “binds”.
Still for that read-out and setting: to B15 belongs “binds”.
On the same count and under the same terms, to B16 belongs “binds”; to B17, “binds”.
Same read-out and setting: the entry for B18 is “binds”; for B19 it is “binds”.
Take B20: the binding result is listed as “binds”.
Still for that read-out and setting: the entry for B21 is “binds”; for B22 it is “binds”.
Same read-out and setting: to B23 belongs “binds”.
Still for that read-out and setting: the entry for B24 is “binds”; for B25 it is “binds”.
For the molecule B26, the binding result is reported as “binds”.
The same measure, in the same setting: the entry for B27 is “binds”.
Still for that read-out and setting: the entry for B28 is “binds”.

The values are drawn from patent publication US20170355775A1 (ELANCO TIERGESUNDHEIT, published 2017).
